US20250213684A1, “COMBINATION THERAPIES COMPRISING ANTIBODY MOLECULES TO TIM-3” (Novartis AG, priority 2015, published 2025)

Columns and labels:
cynomolgus TIM-3 = assay: Flow cytometry binding to cells transfected with cynoTIM-3; design: species or system cynomolgus monkey; conditions: overall statement on the binding experiments of Example 1
Method: (§1) Panels of anti-TIM-3 antibodies were assayed for binding to TIM-3 expressing cells.

[1] = target: T1, TIM-3 binding to PtdSer (phosphatidylserine) (Homo sapiens, UniProt Q8TDQ0); assay: Blocking of TIM-3-Ig binding to PtdSer on anti-CD95-treated WR19L(Fas) cells
T1 construct: huTIM-3 extracellular domain fused to an Ig Fc region
Method: TIM-3 binds to PtdSer (phosphatidylserine), a lipid that is typically present on the surface of apoptotic cells and not normal cells. Anti-CD95-treated WR19L(Fas) cells were cultured under conditions that promote PtdSer accumulation on the cell surface (flipping of PtdSer from the inner membrane to external exposure upon induction of apoptosis). TIM-3-Ig (huTIM-3 extracellular domain fused to an Ig Fc region) was added to the cells, and binding of TIM-3-Ig to the cells was assayed in the presence of various antibodies.

human TIM-4 = target: T2, human TIM-4 (Homo sapiens, UniProt Q96H15); assay: Flow cytometry binding to human TIM-4 expressed in CHO cells
T2 construct: expressed in transfected cells; host or cells: CHO cells
T2 sequence (Q96H15 25-378): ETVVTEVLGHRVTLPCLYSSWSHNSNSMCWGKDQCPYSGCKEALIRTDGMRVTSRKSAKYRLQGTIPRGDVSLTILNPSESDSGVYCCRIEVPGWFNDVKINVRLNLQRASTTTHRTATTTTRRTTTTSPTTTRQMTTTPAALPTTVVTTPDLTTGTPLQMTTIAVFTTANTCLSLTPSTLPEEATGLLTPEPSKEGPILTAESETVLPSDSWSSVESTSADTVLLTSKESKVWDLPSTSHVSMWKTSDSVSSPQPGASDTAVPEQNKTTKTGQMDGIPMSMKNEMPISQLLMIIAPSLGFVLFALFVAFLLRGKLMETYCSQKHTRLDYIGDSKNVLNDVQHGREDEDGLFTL
From the text: (§2) Human TIM-3 has about 23% sequence identity with human TIM-4. Murine TIM-3 has about 66% sequence identity with human TIM-3 and 64% sequence identity with cynomolgus TIM-3.

[2] = system: IL-12 stimulated CD4+ cells; assay: IFN-gamma secretion and proliferation of IL-12 stimulated CD4+ cells; format: cell-based; conditions: IL-12 stimulated CD4+ T cells
Method: The ability of four antibodies to enhance IFN-gamma secretion and proliferation of IL-12 stimulated CD4+ cells was assayed. This assay used the observation that a high dose of IL-12 induces expression of TIM-3 and yields an exhausted phenotype in T cells (see Yang et al., J. Clin. Invest. 122:4 p 1271 2012). […] After PMA/ionomycin restimulation and fixation and permeabilization of cells, the resulting IFN-gamma levels were measured by flow cytometry (y axis) and proliferation was measured by CFSE fluorescence (x axis). FIG. 5B quantifies IFN-gamma expression in cells exposed to these four antibodies.

murine TIM-3 = target: T3, murine TIM-3 (Mus musculus, UniProt Q8VIM0); assay: Flow cytometry binding to murine TIM-3 expressed in cells
T3 construct: expressed in transfected cells
T3 sequence (Q8VIM0 20-281): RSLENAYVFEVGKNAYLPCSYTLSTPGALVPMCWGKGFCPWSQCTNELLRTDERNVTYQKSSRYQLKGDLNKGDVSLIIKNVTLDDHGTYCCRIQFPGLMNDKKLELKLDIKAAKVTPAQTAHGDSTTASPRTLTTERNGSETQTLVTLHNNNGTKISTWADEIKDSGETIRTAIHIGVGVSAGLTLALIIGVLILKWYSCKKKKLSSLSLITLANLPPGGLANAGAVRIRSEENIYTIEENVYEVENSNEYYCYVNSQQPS
From the text: as §2

human TIM-3 = target: T4, human TIM-3 (Homo sapiens, UniProt Q8TDQ0); assay: Flow cytometry binding to cells transfected with human TIM-3; conditions: overall statement on the binding experiments of Example 1
T4 construct: expressed in transfected cells
Method: as §1

[3] = system: PD-L1 IgV/TIM-3 mucin construct; assay: Domain analysis: binding to PD-L1 IgV/TIM-3 mucin chimeric construct; conditions: recombinant construct with TIM-3 IgV domain replaced
Method: TIM-3 has an extracellular IgV domain and a mucin domain. […] 3A. […] The dissociation constant (KD) values were calculated for each tested antibody for the recombinant construct are shown in Table 8.

K562 cells = assay: In vitro cytotoxic activity of purified NK cells against K562 cells; format: cell-based; conditions: antibody 10 μg/mL, 4-hour incubation with target cells
Method: 5.1 TIM-3 blockade enhances in vitro cytotoxic activity of purified NK cells TIM-3 is highly expressed endogenously on NK (natural killer) cells; its expression is further induced on activated NK cells. TIM-3 may act to restrain NK cell function, as do other inhibitory receptors. See Ndhlovu et al., Blood 119:3734, 2012, and Silva et al., Cancer Immunol Res 2:410, 2014.
In this assay. NK cells were purified from whole blood by negative bead selection and then incubated with antibody (10 μg/mL) at 37° C. After 1 hour, target K562 cells were added. After a 4-hour incubation at 37° C., the percent of K562 cell killing was measured.

[4] = system: naïve T cell / dendritic cell co-culture; assay: Proliferation in autologous T-DC co-cultures (CFSE); format: cell-based; conditions: 0.01-25 μg/mL, four days, anti-CD3/CD28; vs no antibody and mouse IgG1 control
From the text: TIM-3 can be expressed on dendritic cells (DCs) and T cells. Naïve T cells and dendritic cells were isolated from donor samples. Naïve T cells and conventional DCs were cocultured for four days in the presence of anti-CD3/CD28. […] Cell proliferation was detected by a CFSE proliferation assay, which relies on dilution of CFSE staining to detect proliferating cells.

inhibition of binding of TIM-3 to PtdSer [1]: inhibit the binding of TIM-3 to PtdSer | binding to human TIM-4 (human TIM-4): does not bind | cross-reactivity with murine TIM-3 (murine TIM-3): not cross-reactive | affinity for human TIM-3 (human TIM-3): sub-nanomolar | binding to the chimeric protein of FIG. 3A [3]: do not substantially bind
B1: ABTIM3: murine anti-TIM-3 antibody; VH SEQ ID NO: 1, VL SEQ ID NO: 2 (antibody, V domains shown)
VH: QVQLQQPGAELVKPGASVKMSCKASGYTFTSYNMHWIKQTPGQGLEWIGDIYPGNGDTSYNQKFKGKATLTADKSSSTVYMQLSSLTSEDSAVYYCARVGGAFPMDYWGQGTSVTVSS
VL: DIVLTQSPASLAVSLGQRATISCRASESVEYYGTSLMQWYQQKPGQPPKLLIYAASNVESGVPARFSGSGSGTDFSLNIHPVEEDDIAIYFCQQSRKDPSTFGGGTKLEIK
affinity for cynomolgus TIM-3 (cynomolgus TIM-3): sub-nanomolar | proliferation ([2]; CFSE): enhances | IFN-gamma secretion ([2]; flow cytometry): enhances | percent of K562 cell killing by NK cells (K562 cells): elevated levels of K523 cell killing relative to anti-TIM-3 #2 or the isotype control | proliferating cells (CFSE-diluted cells) [4]: increase in proliferating cells
